# According to patent US20040161756A1, “Substrate linked directed evolution (slide)” (priority 2000, published 2004):
# Tests used:
# loxH sites = assay: Recombination of loxH sites in E. coli (initial experiments and pEVO-6 vector, plasmid gel); type: cell-based
# Description: (§1) Evolution vectors: The pEVO vector series is based on the plasmid pBAD-33 (Guzman et al., J Bacteriol 177, 4121-30 (1995)). pEVO-loxP^2, pEVO-3, pEVO-6 and pEVO-10 are identical except for the recognition target sites for the recombinase (see also FIG. 3). pEVO-loxP^2 contains two tandemly repeated loxP sites as they exist in the bacteriophage P1, spaced by 690 bp. pEVO-3, contains two recognition target sites which differ in 3 nucleotides per halfsite from a loxP site. The spacer in pEVO-3 is identical to the one found in loxP sites from bacteriophage P1. pEVO-6 recognition target sites (loxH) have the spacer sequence altered in all eight positions in addition to the three nucleotides changes present in pEVO-3. pEVO-10 contains two loxH sites as well as two loxP sites, which are intertwined. Recombinase expression levels can be titrated by the amount of L-arabinose added to the medium.
# pSVpaX (loxP sites) = assay: Recombination reporter assay in CHO cells, pSVpaX; type: cell-based, chinese hamster; conditions: co-transfection, within 36 hours, from β-galactosidase activities
# Description: (§2) a) Plasmids expressing the depicted recombinases from the PGK promoter were co-transfected with the recombination reporter plasmids pSVpaX (loxP sites) or pSVpaH (loxH sites) into CHO cells. Illustrations of plasmids pSVpaX, pSVpaH, and pSVpaZ is presented. White triangles depict loxH sites, grey triangles loxP sites, and black triangles FRT sites. SV40═SV40 early promoter; pac=puromycin acetytransferase.
# (§3) Cell culture: Chinese hamster ovary (CHO) cells were transfected with plasmid DNA using Lipofectamine (GibcoBRL). Crude cell extracts were prepared after 36 hours and Luciferase activity of cell extracts were determined with the Luciferase assay system from Promega. Relative β-galactosidase activities were measured with the Galacto-Light kit from Tropix. The Cre recombination reporter plasmid pSVpaX has been described earlier (Buchholz et al., Nucleic Acids Res 24, 4256-62 (1996)). pSVpaH is identical to pSVpaX except that the loxP sites were exchanged with loxH sites. […] Recombination efficiencies were calculated from measured β-galactosidase activities, corrected by transformation efficiencies assayed by Luciferase measurements.
# (§4) The recombination properties of Fre1 and Fre3 were evaluated in mammalian cells, by co-transfecting chinese hamster ovary (CHO) cells with reporter and recombinase expression plasmids (FIG. 6a). […]
# [1] = test system: recognition target sites which differ in 3 nucleotides per halfsite from a loxP site; assay: Recombination of pEVO-3 in E. coli; type: cell-based
# Description: as §1
# (§5) To test the method of the invention, Cre recombinase was first cloned into the vector pEVO-loxP^2, which contains two loxP sites, oriented as an excision substrate. […] As a first step, the three nucleotides different in the loxH halfsites were introduced (pEVO-3). […] Libraries of mutated recombinase were cloned into pEVO3 and screened at low recombinase expression levels.
# loxP sites = assay: Recombination of pEVO-loxP^2 excision substrate in E. coli; type: cell-based; conditions: expressed from the arabinose promoter, even at very low expression levels
# Description: as §1, §5
# pSVpaH (loxH sites) = assay: Recombination reporter assay in CHO cells, pSVpaH; type: cell-based, chinese hamster; conditions: co-transfection
# Description: as §2, §3, §4
molecule,measurement,setting,value
"Cre: site specific recombinase that recognises the 34 bp loxP sequence; wild type starting protein (protein, UniProt P06956 1-343, looked up) Recombinase cre: MSNLLTVHQNLPALPVDATSDEVRKNLMDMFRDRQAFSEHTWKMLLSVCRSWAAWCKLNNRKWFPAEPEDVRDYLLYLQARGLAVKTIQQHLGQLNMLHRRSGLPRPSDSNAVSLVMRRIRKENVDAGERAKQALAFERTDFDQVRSLMENSDRCQDIRNLAFLGIAYNTLLRIAEIARIRVKDISRTDGGRMLIHIGRTKTLVSTAGVEKALSLGVTKLVERWISVSGVADDPNNYLFCRVRKNGVAAPSATSQLSTRALEGIFEATHRLIYGAKDDSGQRYLAWSGHSARVGAARDMARAGVSIPEIMQAGGWTNVNIVMNYIRNLDSETGAMVRLLEDGD",recombination of pEVO-6 (loxH sites),loxH sites; even when induced with arabinose,no recombination
same,recombination of loxH sites,loxH sites; initial recombination experiments in E. coli,does not recombine this site at measurable frequency
same,reporter pSVpaX recombined,pSVpaX (loxP sites),approximately 75%
same,recombination of pEVO-3,[1]; higher expression levels,recombination was observed
same,recombination of pEVO-3,[1]; low expression levels,did not recombine
same,recombination of plasmid pEVO-loxP^2,loxP sites,efficiently recombined
same,recombination of pSVpaH,pSVpaH (loxH sites),little recombination
